In the assay the target is HLA-A2 (on T2 cells) (human). The assay can be described thus: T2 cell binding assay, fluorescence index by flow cytometry. In general terms: In flow cytometry, cells or beads pass a laser one at a time.
For the molecule LATEKSRWSL (Synthetic 10-mer) [Modified 6 (modified BRAFV600E peptide LATEKSRWSL)], the “T2 Binding (FI)” value was 0.6 FI = (MFI peptide/MFI w/o peptide) - 1.
Under LLTEKSRWSG (Synthetic 10-mer) [Modified 3 (modified BRAFV600E peptide LLTEKSRWSG)] stands 0.9 FI = (MFI peptide/MFI w/o peptide) - 1; under LATEKSRWSI (Synthetic 10-mer) [Modified 5 (modified BRAFV600E peptide LATEKSRWSI)], 0.7 FI = (MFI peptide/MFI w/o peptide) - 1; under LITEKSRWSG (Synthetic 10-mer) [Modified 1 (modified BRAFV600E peptide LITEKSRWSG)], 1 FI = (MFI peptide/MFI w/o peptide) - 1.
As to LATEKSRWSV (Synthetic 10-mer) [Modified 7 (modified BRAFV600E peptide LATEKSRWSV)], the “T2 Binding (FI)” value is 1 FI = (MFI peptide/MFI w/o peptide) - 1.
Under LMTEKSRWSG (Synthetic 10-mer) [Modified 2 (modified BRAFV600E peptide LMTEKSRWSG)] stands 0.8 FI = (MFI peptide/MFI w/o peptide) - 1; under LLTEKSRWSV (Synthetic 10-mer) [Modified 4 (modified BRAFV600E peptide LLTEKSRWSV)], 6.5 FI = (MFI peptide/MFI w/o peptide) - 1.
As for LATEKSRWSG (Synthetic 10-mer) [Unmodified 2 (human BRAFV600E peptide LATEKSRWSG, amino acids 597-606 of BRAFV600E)], the “T2 Binding (FI)” value was 1.1 FI = (MFI peptide/MFI w/o peptide) - 1.

For the origin of these results see patent US20220177548A1 (WISTAR INSTITUTE OF ANATOMY AND BIOLOGY, published 2022).
